The results in this text go back to article PMC3124622.

Substrate in the data set: Nc1nc2nc[nH]c2c(=O)[nH]1
The data set is described as follows: purified protein, by the assay type. The class given is biochemical, E. coli. As to conditions: other: wild-type, guanine as substrate, 20 μM tRNA, 37 °C, pH 7.3.

B1: E. coli TGT Wild-Type (Escherichia coli K-12) (protein)
chain: MKFELDTTDGRARRGRLVFDRGVVETPCFMPVGTYGTVKGMTPEEVEATGAQIILGNTFHLWLRPGQEIMKLHGDLHDFMQWKGPILTDSGGFQVFSLGDIRKITEQGVHFRNPINGDPIFLDPEKSMEIQYDLGSDIVMIFDECTPYPADWDYAKRSMEMSLRWAKRSRERFDSLGNKNALFGIIQGSVYEDLRDISVKGLVDIGFDGYAVGGLAVGEPKADMHRILEHVCPQIPADKPRYLMGVGKPEDLVEGVRRGIDMFDCVMPTRNARNGHLFVTDGVVKIRNAKYKSDTGPLDPECDCYTCRNYSRAYLHHLDRCNEILGARLNTIHNLRYYQRLMAGLRKAIEEGKLESFVTDFYQRQGREVPPLNVD
For orientation: kcat means the number of substrate molecules converted per active site and unit of time at saturation. Take B1: the Km is 0.35 (0.03) μM and the turnover number (kcat) worked out at 0.00629 s⁻¹.
